These results are taken from article PMC5025763, “Bach2–Batf interactions control Th2-type immune response by regulating the IL-4 amplification loop” (Nature Communications, 2016).

This assay has as its target T1, Flag-tagged Bach2 protein (mouse, UniProt P97303 1-839).
T1 construct: Bach2, mouse (murine Bach2 cDNA is named in the methods of the luciferase assay); The species is stated only for the cDNA cloned into pCMV-Myc; also called WT Bach2 protein; BTB and CNC homology 1, basic leucine zipper transcription factor 2; source: cell-free protein synthesis
In words: AlphaScreen or HTRF; Flag-tagged Bach2 mixed with biotinylated transcription factors, 26 °C for 1 h; then protein A-conjugated acceptor beads, streptavidin-coated donor beads and anti-Flag M2 antibody, 26 °C for 1 h; proteins from cell-free synthesis; intensities relative to DHFR. The settings on record: partners not purified. A general note: In Alpha technology, singlet oxygen from a donor bead excites a nearby acceptor bead.

T1 sequence (P97303 whole entry): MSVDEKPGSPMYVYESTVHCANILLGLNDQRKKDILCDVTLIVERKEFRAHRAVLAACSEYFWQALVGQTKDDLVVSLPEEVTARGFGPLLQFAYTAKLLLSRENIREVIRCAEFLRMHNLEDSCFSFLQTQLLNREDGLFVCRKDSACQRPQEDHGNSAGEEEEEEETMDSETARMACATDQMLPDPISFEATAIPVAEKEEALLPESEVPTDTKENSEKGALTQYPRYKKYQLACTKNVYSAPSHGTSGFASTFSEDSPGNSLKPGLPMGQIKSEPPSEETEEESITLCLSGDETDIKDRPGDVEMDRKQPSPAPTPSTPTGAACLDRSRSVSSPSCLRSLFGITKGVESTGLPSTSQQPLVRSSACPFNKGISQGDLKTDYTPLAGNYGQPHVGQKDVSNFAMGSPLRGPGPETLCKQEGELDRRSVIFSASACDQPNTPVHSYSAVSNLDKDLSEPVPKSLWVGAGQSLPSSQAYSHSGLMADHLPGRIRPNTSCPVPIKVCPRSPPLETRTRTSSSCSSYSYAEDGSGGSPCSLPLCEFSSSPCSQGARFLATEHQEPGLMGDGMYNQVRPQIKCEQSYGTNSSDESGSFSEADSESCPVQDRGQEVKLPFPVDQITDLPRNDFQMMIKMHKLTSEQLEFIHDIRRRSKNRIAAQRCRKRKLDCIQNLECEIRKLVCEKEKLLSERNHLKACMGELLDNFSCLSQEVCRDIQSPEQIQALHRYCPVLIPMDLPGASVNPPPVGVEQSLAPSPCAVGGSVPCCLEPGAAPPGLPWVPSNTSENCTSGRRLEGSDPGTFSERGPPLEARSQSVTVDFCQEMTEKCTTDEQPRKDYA

B1: MafK (natural protein)
chain: not shown
notes: MafK (small Maf protein); Named only in the discussion as measured in the authors' AlphaScreen system
As to B1, the “fold binding strength against the Batf–Bach2 interaction” value is approximately 20 fold.
